The RNAGym collection of RNA variant scans (doi:10.7554/elife.80360)

B1: HDV Ribozyme (parent)
chain: GGCCGGCAUGGUCCCAGCCUCCUCGCUGGCGCCGGCUGGGCAACAUUCCGAGGGGACCGUCCCCUCGGUAAUGGCGAAUGGGACCCA

Variants of: B1
Test: self-cleavage, relative activity (ratio to wild type); higher = more cleavage; co-transcriptional
C15U G25A gave a self-cleavage of 0.0898.
For G28A G80A, the self-cleavage was 0.188.
For U46G A83G, the self-cleavage was 0.746.
A16U A70G showed a self-cleavage of 0.855.
In the case of C21A C85A, the self-cleavage is reported as 0.
Variant G5U G68C has a self-cleavage of 0.359.
For C30A G39U, the self-cleavage was 0.185.
Work on U12C A45C yielded a self-cleavage of 0.0504.
For G59A G74C, the self-cleavage was 0.198.
Variant U9G C64U has a self-cleavage of 0.86.
In the case of G6U A83U, the self-cleavage is reported as 0.256.
In the case of C18G G76C, the self-cleavage is reported as 0.147.
For G29U G40U, the self-cleavage was 0.0923.
C19G U69G showed a self-cleavage of 0.102.
Work on C57U C63G yielded a self-cleavage of 1.12.
Variant G6C C22G has a self-cleavage of 0.145.
Work on G31U U72C yielded a self-cleavage of 0.163.
Work on C62G U79C yielded a self-cleavage of 0.529.
In the case of G50A C57U, the self-cleavage is reported as 1.
C33U G68U gave a self-cleavage of 0.678.
For G10C G53C, the self-cleavage was 1.02.
Work on G81A yielded a self-cleavage of 0.403.
Work on G1U U46G yielded a self-cleavage of 0.259.
In the case of A71G G80C, the self-cleavage is reported as 0.271.
With C4U G52C the self-cleavage was 0.776.
Variant U9G G34U has a self-cleavage of 0.237.
C44A C85U showed a self-cleavage of 0.727.
Variant C13G C21A has a self-cleavage of 0.
G52C A83C showed a self-cleavage of 0.475.
C26U A51C gave a self-cleavage of 0.872.
In the case of G35U G82A, the self-cleavage is reported as 0.0841.
Work on G11C G39U yielded a self-cleavage of 0.
With U37A C66A the self-cleavage was 0.29.
C26A A42U gave a self-cleavage of 0.525.
Work on U37A C49A yielded a self-cleavage of 0.161.
Work on C62U A87C yielded a self-cleavage of 1.11.
With A70U U72C the self-cleavage was 0.653.
A16G C57U gave a self-cleavage of 1.14.
A56U C75G showed a self-cleavage of 0.151.
In the case of C18U C32U, the self-cleavage is reported as 0.327.
In the case of G52A C58G, the self-cleavage is reported as 0.974.
In the case of U37A G54A, the self-cleavage is reported as 0.104.
G17U G25A showed a self-cleavage of 0.0489.
In the case of C61U C64G, the self-cleavage is reported as 0.308.
In the case of C21G C32U, the self-cleavage is reported as 0.128.
G25C C49A gave a self-cleavage of 0.0594.
With A42C G81C the self-cleavage was 0.0978.
Variant C13U C32U has a self-cleavage of 0.584.
Work on G5U A71G yielded a self-cleavage of 0.361.
A8G C18U showed a self-cleavage of 0.297.
A8C G59U gave a self-cleavage of 0.804.
C22A C32A gave a self-cleavage of 0.0678.
With C7A U47A the self-cleavage was 0.697.
G6C G59U gave a self-cleavage of 0.314.
For G59C A78U, the self-cleavage was 0.155.
With G35U C64U the self-cleavage was 0.449.
With C18U C41A the self-cleavage was 0.597.
A56U C63A gave a self-cleavage of 0.969.
With G10A A56G the self-cleavage was 0.695.
Work on G28C G76U yielded a self-cleavage of 0.0378.
With U69C A78G the self-cleavage was 0.831.
In the case of G2C A78C, the self-cleavage is reported as 0.
U12A G73U gave a self-cleavage of 0.0997.
G38U C86A showed a self-cleavage of 0.297.
Variant G52A G76A has a self-cleavage of 1.05.
C19A G38A gave a self-cleavage of 0.125.
C22U C32U showed a self-cleavage of 0.65.
Variant C22G U65G has a self-cleavage of 0.155.
For U20C A70G, the self-cleavage was 0.107.
For G35A A71G, the self-cleavage was 0.464.
G39C C62G gave a self-cleavage of 0.0573.
Work on C33U A78G yielded a self-cleavage of 0.228.
With C18U C63G the self-cleavage was 0.607.
Variant C7U G38A has a self-cleavage of 0.0496.
In the case of U37G C86U, the self-cleavage is reported as 0.249.
G39C A77G showed a self-cleavage of 0.243.
Variant C32A C48U has a self-cleavage of 0.106.
C24A U27C showed a self-cleavage of 0.0791.
With C18G U27C the self-cleavage was 0.237.
Variant C22U A51G has a self-cleavage of 0.721.
For G35U C63G, the self-cleavage was 0.262.
With G59A C64U the self-cleavage was 0.903.
Work on G29A A77U yielded a self-cleavage of 0.187.
G31C A71U showed a self-cleavage of 0.172.
G28U A42G showed a self-cleavage of 0.0426.
U20C U60G gave a self-cleavage of 0.199.
Variant U69G A87U has a self-cleavage of 1.06.
Work on C3U G53U yielded a self-cleavage of 0.779.
With C7A G35C the self-cleavage was 0.0665.
Work on C41G U69A yielded a self-cleavage of 0.609.
Work on G6C U60C yielded a self-cleavage of 0.453.
Variant U20G C49U has a self-cleavage of 0.185.
Variant G54A A83G has a self-cleavage of 0.692.
Work on C18U A70U yielded a self-cleavage of 0.658.
For G54A C85U, the self-cleavage was 0.808.
In the case of U37A C62U, the self-cleavage is reported as 0.104.
With G11A G82C the self-cleavage was 0.0739.
U37A C57A showed a self-cleavage of 0.212.
In the case of G1C C22U, the self-cleavage is reported as 0.148.
C18U U60A gave a self-cleavage of 0.852.
In the case of G54C U72G, the self-cleavage is reported as 0.431.
Variant U65A U79C has a self-cleavage of 0.467.
With U27G G67C the self-cleavage was 0.653.
With G40A A70C the self-cleavage was 0.849.
For U46C G76U, the self-cleavage was 1.23.
In the case of A51G G52A, the self-cleavage is reported as 1.
A42U U72C gave a self-cleavage of 0.508.
A42U U72A gave a self-cleavage of 0.511.
Work on C22G U23G yielded a self-cleavage of 0.
C41A C61U showed a self-cleavage of 0.76.
Variant G10A C14G has a self-cleavage of 0.166.
G6U G54A gave a self-cleavage of 0.522.
Variant G53C C75A has a self-cleavage of 0.175.
In the case of U9C C30U, the self-cleavage is reported as 0.636.
U37A C85A showed a self-cleavage of 0.332.
In the case of G5U C85G, the self-cleavage is reported as 0.289.
With C4U C22A the self-cleavage was 0.188.
Work on G74A C84A yielded a self-cleavage of 0.389.
For G29C G38U, the self-cleavage was 0.0627.
Variant C32G G67C has a self-cleavage of 0.149.
Work on C15G A45U yielded a self-cleavage of 0.594.
In the case of U60C G67U, the self-cleavage is reported as 1.03.
With G38A A56U the self-cleavage was 0.218.
G28A A45C showed a self-cleavage of 0.0744.
For G59U C86U, the self-cleavage was 0.852.
Variant C13G C58A has a self-cleavage of 0.
G28U G59C gave a self-cleavage of 0.136.
For U27G G52A, the self-cleavage was 1.02.
Work on C62G G82C yielded a self-cleavage of 0.204.
For U20G A71G, the self-cleavage was 0.196.
With C13A G74C the self-cleavage was 0.0346.
In the case of U12G G28C, the self-cleavage is reported as 0.
C13U C58U gave a self-cleavage of 0.403.
In the case of U23G C85U, the self-cleavage is reported as 0.898.
Variant C32A G74U has a self-cleavage of 0.117.
For A8U U20G, the self-cleavage was 0.166.
G55C C86U gave a self-cleavage of 1.12.
Work on C14G G81A yielded a self-cleavage of 0.957.
G67A G74C showed a self-cleavage of 0.132.
Work on G50U U65C yielded a self-cleavage of 0.791.
For C7G C86A, the self-cleavage was 0.426.
For G25A C36G, the self-cleavage was 0.0997.
For U47A A71G, the self-cleavage was 1.03.
U46A A71C gave a self-cleavage of 1.11.
C61U G80U gave a self-cleavage of 0.217.
G29U C33U showed a self-cleavage of 0.0563.
C14U U79C showed a self-cleavage of 0.259.
Variant G5C C58A has a self-cleavage of 0.162.
Variant G50A G81A has a self-cleavage of 0.415.
C21A A71C showed a self-cleavage of 0.0692.
With G5A C7G the self-cleavage was 0.0875.
U23C C85G showed a self-cleavage of 0.869.
For G39C C84U, the self-cleavage was 0.196.
With A77G A87G the self-cleavage was 0.966.
G25A A71G gave a self-cleavage of 0.0594.
C21U C33A gave a self-cleavage of 0.
For C21U U46A, the self-cleavage was 0.511.
In the case of C49A G76C, the self-cleavage is reported as 1.22.
In the case of G1C A16G, the self-cleavage is reported as 0.196.
G2C G28C showed a self-cleavage of 0.0475.
For C21U U60G, the self-cleavage was 0.122.
With C4A C30U the self-cleavage was 0.116.
For G54C C62A, the self-cleavage was 0.967.
Variant C4U G74U has a self-cleavage of 0.163.
With U65G G76U the self-cleavage was 0.966.
With G25C C33A the self-cleavage was 0.
In the case of C13G C24G, the self-cleavage is reported as 0.
